The record followed here is paper PMC4601640 (2015).

In general, Kd refers to the concentration at which binding is half-saturated. Lower therefore signals tighter binding.

Experiment [1] concerns the target T1, CK2-phosphorylated human full-length p50^Cdc37 (human, UniProt Q16543 1-378, phosphoserine at 13 (shown by Western blot)).
T1 chain: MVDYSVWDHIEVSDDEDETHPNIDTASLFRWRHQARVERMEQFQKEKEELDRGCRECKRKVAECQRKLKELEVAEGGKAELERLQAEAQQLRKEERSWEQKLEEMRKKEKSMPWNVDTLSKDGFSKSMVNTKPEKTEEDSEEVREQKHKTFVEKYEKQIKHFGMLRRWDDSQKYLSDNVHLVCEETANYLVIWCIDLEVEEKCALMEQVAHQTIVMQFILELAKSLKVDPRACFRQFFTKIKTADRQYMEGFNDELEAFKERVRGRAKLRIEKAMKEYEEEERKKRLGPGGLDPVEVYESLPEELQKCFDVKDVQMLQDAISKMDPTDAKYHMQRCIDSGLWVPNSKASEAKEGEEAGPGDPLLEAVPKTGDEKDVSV
Put plainly: ITC; phosphorylated Cdc37. (In general: Isothermal titration calorimetry measures the heat released or taken up as one component is titrated into another.)

Experiment [2] addresses T1, CK2-phosphorylated human full-length …. In words: ITC; both phosphorylated.

B1: human full-length Hsp90β (natural protein)
chain: not shown
In the case of B1, binding in experiment [1] was characterised by a dissociation constant (Kd) of 1400 nM.

B2: CK2-phosphorylated human full-length Hsp90β (natural protein)
chain: not shown
modifications: phosphoserine at 255 (shown by Western blot); Ser226 named as a CK2 site, its phosphorylation could not be verified
As for B2, the Kd in experiment [2] was 1900 nM.
